From the DeepSol protein solubility set come the findings set out here.

The data set in a line: soluble on expression in E. coli; label from the status in PepcDB or PDB records.
With “MKKAKLGKSDLQVFPIGLGTNAVGGHNLYPNLNEETGKELVREAIRNGVTMLDTAYIYGIGRSEELIGEVLREFNREDVVIATKAAHRKQGNDFVFDNSPDFLKKSVDESLKRLNTDYIDLFYIHFPDEHTPKDEAVNALNEMKKAGKIRSIGVSNFSLEQLKEANKDGLVDVLQGEYNLLNREAEKTFFPYTKEHNISFIPYFPLVSGLLAGKYTEDTTFPEGDLRNEQEHFKGERFKENIRKVNKLAPIAEKHNVDIPHIVLAWYLARPEIDILIPGAKRADQLIDNIKTADVTLSQEDISFIDKLFAPG”, the “soluble on expression in E. coli” value is “soluble”.

As for “MGSDKIHHHHHHARDTLFVNLTDATDSQSLKLSDFGNTVRYVPLETNEVCLIGNNPHIALLEDKIVIATKDQCFLFHKQTGKYICSIGHIGDDPSGYSSTNYWIDDAGLFYFFRAPDQLLKYNQKGEMTGKIQIPHIPAAPDFFAFSDSTIIAHCNSSIGLESSNSLLFLNSFGEKLDSIPNLLKSPSIPSPDNISSLSIIKRGAGFFGNLGRRGVMIIKDKEQGELLLPLYNPSLWSSENEVRFRETFTDTIYTIKNRKLYPYMVFHTDTDHSSANPLWYSNPQSIYVAYVLENTHSVFFQYVKNKQVYNGLYNKETQQTKFAKCQQFIVDDLTSEQELKVDLSALCSYKGEYGFILEAASIPDASQKQSDNKNENIPHWMSQLDEDANPVIAIVSDK”, the “soluble on expression in E. coli” value is “not soluble”.

With “MIRSFADRDTELVWLREGAKRVDPRIHKVANRKLHLLDAATTLDALRVTPGNRLETLEGDRVGQYSIRVNDQWRICFRWNDSGPENVEIVDYH”, the “soluble on expression in E. coli” value is “not soluble”.

As for “AVYGIDAMNPSSRDDFTEFGKLLKDKITQYEKSLYYASFLEVLVRDVCISLEIDDLKKITNSLTVLCSEKQKQEKQSKAK”, the “soluble on expression in E. coli” value is reported as “soluble”.

As for “NNADYIEMKVPAQPEYVGIIRLTLSGVASRMGYTYDEIEDLKIAVSEACTNAVQHAYKEDKNGEVSIRFGVFEDRLEVIVADEGDSFDFDQKQQDLGPYTPSHTVDQLSEGGLGLYLMETLMDEVRVQNHSGVTVAMTKYLNGERVDHDTTIKNYETN”, the “soluble on expression in E. coli” value is “not soluble”.

“MSALTPPTDMPTPTTDKITQAAMETIYLCKFRVSMDGEWLCLRELDDISLTPDPEPTHEDSWEDLTDLVEQVRADPEDPNYLMANERMNLMNMAKLSIKGLIESALNLGRTLDSDYAPLQQFFVVMEHCLKHGLKAKKTFLGQNKSFWGPLELVEKLVPEAAEITASVKDLPGLKTPVGRGRAWLRLALMQKKLSEYMKALINKKELLSEFYEVNALMMEEEGAIIAGLLVGLNVIDANFCMKGEDLDSQVGVIDFSMYLKDGNSSKGSEGDGQITAILDQKNYVEELNRHLNATVNNLQTKVDLLEKSNTKLTEELAVANNRIITLQEEMERVKEESSYLLESNRKGPKKTELQKGKR”: the “soluble on expression in E. coli” value is on record as “soluble”.

For “MKYRIVRIELKSDDEVTLYLKSASRKPGVMAKADFSDPVKVIEFGLQMGMDLARRIEELMQFDAFLTVPYDYYSMNELKVGDVVEVEVRLAER”, the “soluble on expression in E. coli” value is “not soluble”.

Take “MGSDKIHHHHHHMSTDNDTETDDSGGHCSTPDSDGEVAEDIAIVAFERKRDTAAEIVAGIGDRYDSIDILDYHGDVFAEHWGEYDCFVGLMASGIAMRKTAGLLDDKWEDPAVVVVDEALTWAIPLTGGHHGANQVADDLASMGAVPAMTTASEAAGKQGVEERAKALDTHVVNGDSTVATNLAVLDENLGPVARLDGPQAVVVGDDVTVLKRNSDDGVVLGTGSVSGADEQQFRDAWAASLAATDYDIDDVEFVATGTRKADEEGLLAAAEALGLGVVAFEKETLEAHEGPTPSRSKELIGWPGIAEASAIAGGRDNELLAEKERYDEAVTVAVGK”: the “soluble on expression in E. coli” value is “not soluble”.

On to “MAASLGLAAAAASAWAQAPAMDHGSMPGMDHGAAPASAMDHGSMPGMDHGAAPAPAIGALPSSDGAGDQSYAAYGIHSHMMDDMATSQLLFDKLGMTYDRDRRTGLQWDGQFWVGRDLDKLWIKSEGERVGGRSDGKVEAFWNRTISPFWDLQVGARRDFGTGPKRNWGAIGLQGVAPYNIETEVTAYVGGSGRTALALKAEYDLLLTQRLVLTPEIEASVYGKDDKARGIGAGLSDASFSLRLRYEITREVAPYVGVSFGRKFGRTASYASEEGESRSERAIMAGVRIWFLEHHHHHH”, for which the “soluble on expression in E. coli” value is “not soluble”.

Consider “MDGEELREDLKEKGKTMDNDLKKSLKEAPSESYCYVLINPYVLDKDVREVDLATFLSSIFYVGKGKGERAMAYFKDACGNIQGSRKLTTIDQAWNKKGFVYKHIIWRPIIENLALAREAAMIFFFKNLAGKSNFTNKYNGSFKGESAFWSREEKCNYGVYLLETIHRSIQTNGCETVKKEDVAPRAAIQQSPRL”, for which the “soluble on expression in E. coli” value is listed as “not soluble”.

In the case of “GMTQHLTIAQTYLAAWNEEDNERRRHLVGQAWAENTRYVDPLMQGEGQQGIAAMIEAARQKFPGYRFVLAGTPDGHGNFTRFSWRLISPDGDDVAGGTDVVSLNTEGRIDNVVGFLDGAVS”, the “soluble on expression in E. coli” value was “soluble”.

For the sequence “MGTIPASTYYPTHFMRGTQLNVANGNIKKVEDLSSDDFLRCAAESDDVIVNASVIKSIKSTAGSVTIIFETGIEKQLIPLKCQVEHPFFVLGKGWCSCNPRKSGENYGLDCEILQVDDVCIVLTRNEDKITDCAVDIVTAERDLELFSQRAALKEQLVDVYYERVSGRVSAPPERVLVTFSNEHRERRISE”, the “soluble on expression in E. coli” value is on record as “not soluble”.

Consider “MNDTKITGGDLYDLWRVANINMPNVQAVYADACNVIHEINVANEDKFGRAHPGWAALGQIYEQCLFLTEGSLFSVAHYIDKAVKEFKEVDAEAARDLEAIFKNPNDHNPDDELTGDEKPKDVEVPNWWND”, for which the “soluble on expression in E. coli” value is “not soluble”.

In the case of “MQIDNISDEQVVIVRMSCYLKKDEIFKNIERYGYQSSDIKKISPPFPLNILPVPKPYYFYLYDTHLNQIYDLAWSCNDFLMFEIFILDRESIKYIDKDKLFKSRETLYSNFKSIKNQCKNYFFCGFDFDAPYFKSGVSQVADYNFVPDAFSLFFI”, the “soluble on expression in E. coli” value is listed as “not soluble”.

For “MGHHHHHHSHMKWASENGASVEGFEMVNFKEEGFGLRATRDIKAEELFLWVPRKLLMTVESAKNSVLGPLYSQDRILQAMGNIALAFHLLCERASPNSFWQPYIQTLPSEYDTPLYFEEDEVRYLQSTQAIHDVFSQYKNTARQYAYFYKVIQTHPHANKLPLKDSFTYEDYRWAVSSVMTRQNQIPTEDGSRVTLALIPLWDMCNHTNGLTPEDSFALAVASA”, the “soluble on expression in E. coli” value was “not soluble”.

Regarding “MKEIIFDDIGSYPLPEGVSREWVQNAFKTRAEDEKLFTVINDAFQQKIDAGVEVPTYPQYQDMNEQFLKVIRDSNCTDSPFEVKLECARIEELEAIETVAKAYKEKFGETLKVRICVTGPTELYLKEFGGTRYTDIYTLFAKSINRFVRNSMKSAKHFKIATVSIDEPSIGLNPELAFDENDVISALTEASKAASKWGADVEIHLHSPLYYNYACETTTINVIGVESAGTPSYLELIDKKMLEDTDSFLRIGIARTDIFSLAGILNEKYCTNIWKDQQYIPEIVSQLETPEVIEKRLKLAYRRFGSLIKYVGPDCGLGSWPNQRIAFILLSNVAQGIKNFRENLLEHHHHHH”, the “soluble on expression in E. coli” value is reported as “soluble”.

For “MSLSRIIVVTSGKGGVGKTTSSAAIASGLALRGKKTAVIDFDIGLRNLDLIMGCERRVVYDFVNVINGEATLNQALIKDKRNENLFILPASQTRDKDALTKDGVQRVLNDLKEMGFDFIICDSPAGIEQGALMALYYADEAIVTTNPEVSSVRDSDRILGILDSKSMRAEQGQAPIKQHLLLTRYNPARVTQGEMLSVQDVEEILHVPLLGVIPESQAVLNASNKGVPVIFDDQSDAGQAYQDTVARLLGEQVEFRFLTEAKKGIFKRLFGGEGHHHHHH”, the “soluble on expression in E. coli” value is “soluble”.

Consider “MGSDKIHHHHHHMPTLTEIGNDQLTVQISSLGAEMQSLRTKDGQSLLWHGDAAYWGGRSPILFPIVGKAKDDTLLIDGKPYSMAQHGIARRREFTLLEAGADVCRHELTAGDETKAAYPFDFSLVLEHRLHGAALTVAATVSNRSDTPMPYGLGFHPAFLWPLPGAEGKPHTITLENGAEPPLLRLGGGLLAEEARPSPFHAGRLVLDKSQFEEDAMIFPEGAGTELTYRAEDAASLHFHFENLPNLALWQKPGAPFICIEPWHGMAARHGKSGELTERPYTVILAPGDSARHGFTVTVEA”, for which the “soluble on expression in E. coli” value is on record as “not soluble”.

For the sequence “MHHHHHHSSGVDLGTENLYFQSMLPHSVLLEIQKELLDYKGVGISVLEMSHRSSDFAKIINNTENLVRELLAVPDNYKVIFLQGGGCGQFSAVPLNLIGLKAGRCADYVVTGAWSAKAAEEAKKFGTINIVHPKLGSYTKIPDPSTWNLNPDASYVYYCANETVHGVEFDFIPDVKGAVLVCDMSSNFLSKPVDVSKFGVIFAGAQKNVGSAGVTVVIVRDDLLGFALRECPSVLEYKVQAGNSSLYNTPPCFSIYVMGLVLEWIKNNGGAAAMEKLSSIKSQTIYEIIDNSQGFYVCPVEPQNRSKMNIPFRIGNAKGDDALEKRFLDKALELNMLSLKGHRSVGGIRASLYNAVTIEDVQKLAAFMKKFLEMHQL”, the “soluble on expression in E. coli” value is “soluble”.

For “MAHHHHHHMALLVYLNNKQTHSFIAVRKSSSLLFSPGNFKAIYQRIYEHLNDQYEERGQLEAGEEILTVKPNVFAQNGVIDFDGVRKMWTSHIVPQLRRCVTGDHLANTTDNSVVSIEESAVFCDIGSGVGNVCLQLLAETNCRKVVGVEVIPSRHRAATTAFAKALSYFPENFSGKQAIFIQDDFVNCARRMVEENVNVIFTHSWMFDDELMKRLTELVVSLPALLCVVTSRPLHENLLVGSQMKLVSYVHLTADWNDEAPFFIYRKIT”, the “soluble on expression in E. coli” value was “not soluble”.

“SETQEGVSKQSIRERIWDYMESHDIADFPRPVHHRIPNFKGAAQAAGHLPHLQAFHVARTIKVNPDAPQRNARFLVLESKKTLLVPTPRLRTGLFNKITPPPGATKDILRKCATSQGVRNFSVPVGLDSSVLVDLVVVGSVAVSEKGKLETGCLDVPEGYPGHSPLACVHAESLTSAPVPLTLQAFCCSVSPHGRLSVIGMGGIESLSHLNQHSVERPLPGLCGGPLMVVVIPH”: the “soluble on expression in E. coli” value is reported as “not soluble”.

Regarding “MGSDKIHHHHHHMIELCEVTKTYPIYHGHAQRTILDRINLRVGKGQKWGILGRNGAGKSTLIRLISGAERPNTGNIVRNMTVSWPLAFGGAFQGSLTGRDNTRLICRAYGVDFDKTITMVENFAELGSYLWEPVKSYSSGMSARLAFAISISVEFDCFLIDEALAVGDHRFLQKCNVELFENRGDRAMIIVSHQTNIIRTHCDHAAVLENGHLTVHESVDSAIAAYEAL”, the “soluble on expression in E. coli” value was “not soluble”.

Take “MGSDKIHHHHHHMTENNGFQQHVAKVYREHRGERIVPFEYQGKRYWLKQVEHLAGAMRLLKQNSTAALHKEIGILNTLSHIGAPVPAVVDYGDGYMVVEDVGNTINHLLDHTSQALWQPILNDVSVALAKLHSMQLAHGRPALRDISWQAGEVKFIDFEANQQHKSVVSQQVRDVLVFIHSLYRYIGPNNRMINQAIACYRLAGGEAIWQKAKQFLASWQWLYYFARPFRDFGGKDLKPVYWVLWHFRQAPLTLA”: the “soluble on expression in E. coli” value is given as “not soluble”.

On to “RRTTNDGFHLLKAGGSCFALISGTANQVKCYRFRVKKNHRHRYENCTTTWFTVADNGAERQGQAQILITFGSPSQRQDFLKHVPLPPGMNISGFTASLDF”, for which the “soluble on expression in E. coli” value is reported as “soluble”.

“MGDSFYIRTHFELEPSPPSGLGFTRGDVFHVLDTLHPGPGQSHARGGHWLAVRMGRDLREQERGIIPNQSRAEQLASLEAAQRAVGVGPGSSAGSNARAEFWRLRGLRRGAKKTTQRSREDLSALTRQGRYPPYERVVLREASFKRPVVILGPVADIAMQKLTAEMPDQFEIAETVSRTDSPSKIIKLDTVRVIAEKDKHALLDVTPSAIERLNYVQYYPIVVFFIPESRPALKALRQWLAPASRRSTRRLYAQAQKLRKHSSHLFTATIPLNGTSDTWYQELKAIIREQQTRPIWTAEDQLHHHHHH”: the “soluble on expression in E. coli” value is reported as “soluble”.
